Key:
[1] = In vitro kinetics (Km, Vmax), acceptor substrate lactose; assay type: biochemical; settings: 30° C., pH7.5, protein extract
Protocol: (§1) To rank the best performing sialyltransferases, their Km values for donor and acceptor substrates were determined in vitro. Escherichia coli BL21(DE3) strain #287 was used for overproduction of the enzymes. Cells were incubated in 100 ml 2YT medium in shaking flasks supplemented with 100 μg m^−1 ampicillin at 30° C. until an OD600 of 0.3 was reached. Then, 0.3 mM IPTG was added and the incubation was continued for 12 to 16 hours. Cells were harvested by centrifugation and mechanically disrupted in a defined volume of 50 mM Tris-HCl pH7.5 using glass beads. The protein extract was kept on ice until the assay started. The in vitro assay was carried out in a total volume of 50 μl including 50 mM Tris-HCl pH7.5, 5 mM MgCl2 and varying concentrations of CMP-Neu5Ac (0.05-30 mM) as well as of lactose or LNT (0.1-50 mM). The assay started with the addition of 35 to 750 μg protein extract. After 1 to 10 minutes of incubation at 30° C., the assay was inactivated at 95° C. for 5 minutes. Product formation was determined by mass spectrometry. Data were evaluated using the enzyme kinetic module of SigmaPlot v12.5 to calculate Km and Vmax.
(§2) Their kinetic parameters for CMP-Neu5Ac and LNT as well as lactose are depicted in Table 6.

[2] = In vivo screening in E. coli #1363/#1730 with lactose as acceptor, sialyllactose identified by TLC; assay type: cell-based, Escherichia coli BL21(DE3); settings: 1.5 mM lactose, 72 to 96 hours, qualitative via TLC
Procedure, shortened: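 E. coli BL21(DE3) #1363/#1730 expressing sialyltransferases were grown at 30 °C in mineral salts medium with 2% glucose and induced with 0.3 mM IPTG. After 1 h, 1.5 mM lactose was added, plus 1.5 mM sialic acid for #1730, and incubation ran 72–96 h. Cell lysates were analysed by silica TLC with thymol staining.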

[3] = In vitro kinetics (Km, Vmax), donor substrate CMP-Neu5Ac; assay type: biochemical; settings: 30° C., pH7.5, protein extract
Protocol: as §1, §2

[4] = Batch fermentation of LNT-producing E. coli BL21(DE3) #2130 expressing sialyltransferases, TLC of intracellular fraction; assay type: cell-based, Escherichia coli BL21(DE3); settings: strain #2130, 3 mM lactose, 3 mM sialic acid, 48 hours after induction, validated by mass spectrometry
Source text: Escherichia coli BL21(DE3) strain #534 was used to construct a lacto-N-tetraose (LNT) producing strain. The β-1,3-N-acetylglucosaminyltransferase gene IgtA from Neisseria meningitidis MC58 (acc. no. NP_274923) was codon-optimized for expression in E. coli and prepared synthetically by gene synthesis. Together with the gene galT, encoding a galactose-1-phosphate uridylyltransferase from E. coli K-12 substr. MG1655 (acc. no. NP_415279), that was similarly obtained by gene synthesis, IgtA was inserted by transposition (SEQ ID NO: 188) using plasmid pEcomar-IgtA-galT. To enhance de novo synthesis of UDP-N-acetylglucosamine, genes encoding L-glutamine:D-fuctose-6-phosphate aminotransferase (glmS), phosphoglucosamine mutase from E. coli K-12 substr. MG1655 (glmM) and N-acetylglucosamine-1-phosphate uridyltransferase/glucosamine-1-phosphate acetyltransferase (glmU) from E. coli K-12 substr. MG1655 (acc. no. NP_418185, NP_417643, NP_418186, respectively) were codon-optimized and obtained by gene synthesis. The operon glmUM was cloned under the control of constitutive tetracyclin promoter Ptet while glmS was cloned under the constitutive PT5 promoter. […]

[5] = In vitro kinetics (Km, Vmax), acceptor substrate LNT; assay type: biochemical; settings: 30° C., pH7.5, protein extract
Protocol: as §1, §2

B1: SiaT19: sialyltransferase of Photobacterium leiognathi JT-SHIZ-145, acc. BAF91416, SEQ ID NO: 30 (protein, listed as Photobacterium leiognathi)
chain: MNDNQNTVDVVVSTVNDNVIENNTYQVKPIDTPTTFDSYSWIQTCGTPILKDDEKYSLSFDFVAPELDQDEKFCFEFTGDVDGKRYVTQTNLTVVAPTLEVYVDHASLPSLQQLMKIIQQKNEYSQNERFISWGRIRLTEDNAEKLNAHIYPLAGNNTSQELVDAVIDYADSKNRLNLELNTNTGHSFRNIAPILRATSSKNNILISNINLYDDGSAEYVSLYNWKDTDNKSQKLSDSFLVLKDYLNGISSEKPNGIYSIYNWHQLYHSSYYFLRKDYLTVETKLHDLREYLGGSLKQMSWDTFSQLSKGDKELFLNIVGFDQEKLQQEYQQSELPNFVFTGTTTWAGGETKEYYAQQQVNVVNNAINETSPYYLGREHDLFFKGHPRGGIINDIILGSFNNMIDIPAKVSFEVLMMTGMLPDTVGGIASSLYFSIPAEKVSFIVFTSSDTITDREDALKSPLVQVMMTLGIVKEKDVLFWC
Km [1]: 3 mM
Vmax Lactose [1]: 0.09 µmol/min
Production of sialyllactose in-vivo [2]: 6′-SL
Km [3]: 1.1 mM
Vmax CMP-Neu5Ac [3]: 0.09 µmol/min
Intracellular formation of sialyllacto-N-tetraose [4]: LST-b
Km [5]: 2.9 mM
Vmax LNT [5]: 0.04 µmol/min

B2: SiaT9: sialyltransferase of Vibrio sp. JT-FAJ-16, acc. BAF91160, SEQ ID NO: 2 (protein, listed as Vibrio sp.)
chain: MNNDNSTTTNNNAIEIYVDRATLPTIQQMTKIVSQKTSNKKLISWSRYPITDKSLLKKINAEFFKEQFELTESLKNIILSENIDNLIIHGNTLWSIDVVDIIKEVNLLGKNIPIELHFYDDGSAEYVRIYEFSKLPESEQKYKTSLSKNNIKFSIDGTDSFKNTIENIYGFSQLYPTTYHMLRADIFDTTLKINPLRELLSNNIKQMKWDYFKDFNYKQKDIFYSLTNFNPKEIQEDFNKNSNKNFIFIGSNSATATAEEQINIISEAKKENSSIITNSISDYDLFFKGHPSATFNEQIINAHDMIEINNKIPFEALIMTGILPDAVGGMGSSVFFSIPKEVKNKFVFYKSGTDIENNSLIQVMLKLNLINRDNIKLISDI
Km [1]: 2.9 mM
Vmax Lactose [1]: 0.18 µmol/min
Production of sialyllactose in-vivo [2]: 3′-SL
Km [3]: 0.96 mM
Vmax CMP-Neu5Ac [3]: 0.16 µmol/min
Intracellular formation of sialyllacto-N-tetraose [4]: LST-a
Km [5]: 2.9 mM
Vmax LNT [5]: 0.15 µmol/min

Reference: patent US12692524B2, “Sialyltransferases and their use in producing sialylated oligosaccharides” (Chr. Hansen A/S, priority 2017, dated 2026)
